Reference: PMC13365592

Columns and labels:
Test in all cases: cryo-EM structure
[1] = biological target: MEL_213b (melbournevirus)
[2] = biological target: major capsid protein MEL_305 (melbournevirus)
MEL_256 (melbournevirus) = biological target: MEL_256 (melbournevirus)

MEL_213b (natural protein)
stoichiometry N [1]: 2

major capsid protein MEL_305 (natural protein)
stoichiometry N [2]: 3

MEL_256 (natural protein)
stoichiometry N (MEL_256 (melbournevirus)): 5
